Test results as given in patent publication US20230151434A1, “REAWAKENING OF DORMANT TUMOR CELLS BY MODIFIED LIPIDS DERIVED FROM STRESS ACTIVATED NEUTROPHILS” (The Wistar Institute of Anatomy and Biology, priority 2020, published 2023).

B1: S100A8/A9: recombinant S100A8/A9, heterocomplex of two S100 calcium binding proteins (calprotectin) (protein, UniProt P27005 2-89; P31725 2-113, looked up)
Protein S100-A8: PSELEKALSNLIDVYHNYSNIQGNHHALYKNDFKKMVTTECPQFVQNINIENLFRELDINSDNAINFEEFLAMVIKVGVASHKDSHKE
Protein S100-A9: ANKAPSQMERSITTIIDTFHQYSRKEGHPDTLSKKEFRQMVEAQLATFMKKEKRNEALINDIMEDLDTNQDNQLSFEECMMLMAKLIFACHEKLHENNPRGHGHSHGKGCGK

What was measured:
[1] = test system: A549^cisA and OVCAR3^cisA cells; assay: In vitro co-culture of chemotherapy-arrested human tumor cells with human PMN; type: cell-based; conditions: PMN and NE plus ICI-118,551
Protocol: The KPr cell line (16) was maintained in RPMI 1640 medium (Corning) and 10% FBS (Gibco). Treatment of KPr cells with 250 nM 4-hydroxytamoxifen (4-OHT, Sigma-Aldrich) induced p53 expression. p53-induced cells (KPr^p53) were stained with CellTrace dye for 20 min at 37° C. according to the manufacturer's instructions (Life Technologies) and seeded at 8500 cells/cm^2 in culture in a T175 tissue culture-treated flask (Gibco). After 7 days, cells were detached and sorted based on the CellTrace dye intensity as proliferating (KPr^p53P, with lower CellTrace) and arrested cells (KPr^p53A, with higher-intensity CellTrace; see FIG. 1A for representative image). LL2 cells were seeded at 1000 cells/cm2 and treated for 3 days with 2.5 μM cisplatin (Selleckchem). After that, cells were stained with CellTrace and sorted as described above. OVCAR3 cell senescence was induced by treating 5×10^4 cells/cm2 with 0.5 μM cisplatin for 72 hours. After that time, cells were stained with CellTrace and sorted. A549 senescence was induced by 72-hour treatment with 4 μM cisplatin and cells were sorted after staining with CellTrace. Time points for sorting were chosen as the best to observe separation between arrested and proliferating cells. Cells were sorted on Astrios (Beckman Coulter) or Melody (Becton Dickinson) fluorescence-activated cell sorters.
Arrested tumor cells were plated at 100 cells/cm^2 in a 48-well tissue culture-treated plate (Costar) for coculture experiments. After 24 hours, PMN-MDSC or PMN were added at indicated ratios. Cocultures were maintained for 48 hours in RPMI 1640+10% FBS in the presence of mouse recombinant GM-CSF (10 ng/ml; Rocky Hill) to ensure neutrophil viability. All control conditions were in the presence of media with GM-CSF. All indicated supplements (NE, S100A8/A9, BGJ398, ICI 118-551, IL-2, MPO inhibitor, LPS, lipids, PMA, and thapsigargin 1 μM) were added to culture at the same time as PMN and maintained for 48 hours. After that, media were removed and replaced by fresh media without GM-CSF. After 1 week, GFP^+ cells in wells were counted via an inverted microscope. When lipid extracts were used, lipids were added to dormant cells in culture at 1 to 0.05 or 0.01 nmol as indicated in each experiment.

[2] = test system: PMN; assay: S100A8/A9 release by PMN measured by ELISA; type: cell-based, mouse; conditions: PMN treated with NE with or without ICI-118,551
Protocol: PMN or PMN-MDSC were isolated from spleen of tumor-free mice or LLC tumor-bearing mice, respectively. A total of 5×10^5 LLC cells were injected into the right flank of mice, and spleens were harvested when tumors reached 200 mm^2. Spleens were mechanically dissociated. Red blood cells were lysed with ACK buffer cells. Splenocytes were stained with mouse biotin-conjugated Ly6G antibody (Miltenyi Biotec) followed by biotin microbeads. Ly6G+ cells were purified by magnetic separation with MACS column for magnetic cell isolation, according to the manufacturer's instructions (Miltenyi Biotec).
One hundred microliters of mouse peripheral blood was collected from facial vein. NE was measured by a mouse NE ELISA Kit (Novus Biologicals). S100A8/A9 was measured by Mouse S100A8/S100A9 Heterodimer DuoSet ELISA (R&D Systems). S100A8/A9 concentrations in human serum samples were determined by using a double-sandwich ELISA system as previously described (64), which is different from commercial ELISA kits. Human NE was measured using an ELISA kit (Abnova).

[3] = test system: PMN; assay: ROS production in PMN (DCFDA, flow cytometry); type: cell-based, mouse
From the text: FIG. 14A-FIG. 14B show the effect of S100A9 on PMN activity. (FIG. 14A) DCFDA measured by flow cytometry in PMN treated with S100A8/A9 or NE. Each dot represents an individual mouse. Mean±SEM are shown. (FIG. 14B) qRT-PCR of Ptges, Ptgs2, and Arg1 expression in mouse PMN treated with S100A8/A9 or NE. Each dot represents an individual mouse. Mean±SEM are shown.

[4] = test system: PMN; assay: qRT-PCR of Ptges, Ptgs2 and Arg1 in PMN; type: cell-based, mouse
Protocol: RNA from tumor cells or PMN was extracted from snap-frozen pellets with Quick-RNA Microprep or Quick-RNA Miniprep (Zymo Research) per the manufacturer's instructions. cDNA was prepared with a High-Capacity cDNA Reverse Transcription Kit with RNase Inhibitor (Thermo Fisher Scientific) per the manufacturer's instructions. qRT-PCR was performed in an ABI QuantStudio 5 Rm 422 machine (Applied Biosystems).

[5] = test system: PMN and PMN-MDSC; assay: NET detection; type: cell-based, mouse
Protocol: PMN were cultured for 8 hours in 24-well flat-bottom plates in RPMI 1640+10% FBS. PMN were then fixed with 4% paraformaldehyde (Electron Microscopy Sciences) followed by staining with SYTOX Green Nucleic Acid Stain (SYTOX) at a final concentration of 250 nM. A Nikon TE300 inverted microscope equipped with a motorized XY stage was used to image NETs by acquiring 25 random locations per well. The z-stacks per location were then combined into an extended depth focused image. The total NET area was calculated by segmenting each image using a defined threshold pixel intensity setting. The spot detection tool in NIS-Elements Advanced Research (Nikon) was used to count the number of cells per field. The sum of the total NET area in the 25 random fields of view was divided by the total number of cells in the 25 fields of view to obtain NET area (in […]) per cell.

[6] = test system: MPO; assay: MPO activity in neutrophils; type: cell-based, mouse; conditions: S100A8/A9 5 μg/ml or LPS 2 μg/ml
Protocol: Neutrophils were isolated from tumor-free mice as described above, and MPO activity was measured with an MPO Fluorometric Activity Assay Kit (Sigma-Aldrich) using a VICTOR spectrophotometer (PerkinElmer).

Molecule	NE- and PMN-induced reactivation of dormant human tumor cells, effect of β-blocker [1]	NE-mediated secretion of S100A8/A9 by PMN [2]	ROS production in PMN [3]	expression of Arg1, Ptgs2, or Ptges in PMN [4]	NET formation by PMN and PMN-MDSC [5]	MPO enzymatic activity in PMN [6]
Cc1ccc(OCC(O)C(C)NC(C)C)c2c1CCC2 (stereo not drawn) [ICI-118,551]	this effect was abrogated	abrogated the NE-mediated secretion of S100A8/A9 by PMN	–	–	–	–
B1	–	–	no effect on ROS production	little or no effect on expression of Arg1, Ptgs2, or Ptges	did not cause substantial up-regulation of NETs	activated MPO in PMN
